This data set deals with T1, SfiI modification methylase (M.SfiI) (Streptomyces fimbriatus) (UniProt O52513).
T1 sequence: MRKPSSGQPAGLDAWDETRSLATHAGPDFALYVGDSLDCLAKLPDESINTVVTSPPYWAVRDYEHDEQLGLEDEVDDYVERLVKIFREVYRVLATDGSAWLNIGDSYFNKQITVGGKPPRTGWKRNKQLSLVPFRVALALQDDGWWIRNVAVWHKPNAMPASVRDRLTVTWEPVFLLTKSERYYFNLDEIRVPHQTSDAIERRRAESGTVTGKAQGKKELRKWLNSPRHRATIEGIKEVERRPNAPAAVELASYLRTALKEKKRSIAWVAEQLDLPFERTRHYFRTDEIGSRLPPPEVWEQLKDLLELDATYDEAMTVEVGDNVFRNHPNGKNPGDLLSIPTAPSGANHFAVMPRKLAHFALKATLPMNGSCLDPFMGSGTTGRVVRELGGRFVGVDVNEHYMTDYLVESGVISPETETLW
Put plainly: inhibition. The following applies: protection from SfiI cleavage; 10 mM EDTA, 0.1 mM AdoMet, 37 C; 0.3M and 0.5M KCl fractions.

The values below come from patent publication US5637476.

As for T4 DNA, the activity was found to be 2500 units/ml.
